{"source": "patent US20140087995A1", "about": "(published 2014)", "key": {"[1]": {"molecular_target": "T1, human calcitonin receptor (human, UniProt P30988 25-474)", "T1 sequence (looked up)": "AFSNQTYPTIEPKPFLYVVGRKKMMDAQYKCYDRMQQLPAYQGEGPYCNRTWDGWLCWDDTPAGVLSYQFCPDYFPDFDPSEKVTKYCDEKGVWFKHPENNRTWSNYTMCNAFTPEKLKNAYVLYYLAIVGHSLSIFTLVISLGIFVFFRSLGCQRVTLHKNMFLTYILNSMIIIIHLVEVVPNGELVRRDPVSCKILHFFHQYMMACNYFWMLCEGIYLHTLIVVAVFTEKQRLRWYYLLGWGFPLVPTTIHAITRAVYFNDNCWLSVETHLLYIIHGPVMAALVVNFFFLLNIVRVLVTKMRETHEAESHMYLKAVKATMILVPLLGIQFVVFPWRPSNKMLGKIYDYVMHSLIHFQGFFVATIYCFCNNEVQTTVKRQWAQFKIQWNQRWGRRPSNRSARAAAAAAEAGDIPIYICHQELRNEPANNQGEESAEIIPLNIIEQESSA", "assay": "cell-based or functional assay"}, "[2]": {"molecular_target": "T2, human amylin 3(a) receptor (human calcitonin receptor plus RAMP-3) (human, UniProt P30988 25-474; O60896 24-148, limits assumed)", "T2 sequence (looked up) 1": "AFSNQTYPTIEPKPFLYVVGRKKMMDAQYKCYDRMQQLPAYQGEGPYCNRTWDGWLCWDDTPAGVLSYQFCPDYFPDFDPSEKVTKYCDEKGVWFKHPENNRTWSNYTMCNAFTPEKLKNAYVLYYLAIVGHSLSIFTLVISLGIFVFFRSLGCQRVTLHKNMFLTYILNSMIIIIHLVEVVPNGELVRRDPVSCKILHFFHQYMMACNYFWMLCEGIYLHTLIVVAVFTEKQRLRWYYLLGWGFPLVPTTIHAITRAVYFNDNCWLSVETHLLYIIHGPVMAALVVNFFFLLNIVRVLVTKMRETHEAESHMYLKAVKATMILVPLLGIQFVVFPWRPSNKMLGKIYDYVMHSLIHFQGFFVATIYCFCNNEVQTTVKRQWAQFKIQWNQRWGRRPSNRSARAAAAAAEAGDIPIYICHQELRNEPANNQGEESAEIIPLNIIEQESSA", "T2 sequence (looked up) 2": "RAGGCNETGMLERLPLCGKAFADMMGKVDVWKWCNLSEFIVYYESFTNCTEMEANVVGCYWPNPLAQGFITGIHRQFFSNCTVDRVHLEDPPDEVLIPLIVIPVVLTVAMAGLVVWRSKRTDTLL", "assay": "cell-based or functional assay"}, "[3]": {"molecular_target": "T2, human amylin 3(a) receptor (human …)", "assay": "SPA competition binding, displacement of 125I-rat amylin from membranes of Amylin 3(a)/CRE-luc BHK cells (Assay V)", "outline": "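SPA beads + BHK amylin 3(a)/CRE-luc membranes, 35 ng/μL final; buffer 50 mM Hepes pH 7.4, 1 mM CaCl2, 5 mM MgCl₂, 0.1% OA, 0.02% Tween20. 120 min, 25° C, shaken; scintillation count. IC₅₀ by one-site binding competition fit, taken as receptor affinity.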"}}, "note": "Numbered stars: 1 amine (or outer) side, 2 acyl side, 3 side chain; on linkers, the order of the positions; unused ones are H or OH. Bridge positions count the residues as written; N and C are the ends. * marks the point of attachment. C20 diacid = O=C(O)CCCCCCCCCCCCCCCCCCC(=O)*; γGlu = O=C(O)[C@H](CCC(=O)[*:2])N[*:1]"}
{"binder": "{C20 diacid-γGlu}-KCNTATCATQRLAEFLRHSSPNFGAIPSSTPVGSNTY-NH2 (disulfide 2-7; SMILES CC[C@H](C)[C@H](NC(=O)[C@H](C)NC(=O)CNC(=O)[C@H](Cc1ccccc1)NC(=O)[C@H](CC(N)=O)NC(=O)[C@@H]1CCCN1C(=O)[C@H](CO)NC(=O)[C@H](CO)NC(=O)[C@H](Cc1c[nH]cn1)NC(=O)[C@H](CCCNC(=N)N)NC(=O)[C@H](CC(C)C)NC(=O)[C@H](Cc1ccccc1)NC(=O)[C@H](CCC(=O)O)NC(=O)[C@H](C)NC(=O)[C@H](CC(C)C)NC(=O)[C@H](CCCNC(=N)N)NC(=O)[C@H](CCC(N)=O)NC(=O)[C@@H](NC(=O)[C@H](C)NC(=O)[C@@H]1CSSC[C@H](NC(=O)[C@H](CCCCN)NC(=O)CC[C@H](NC(=O)CCCCCCCCCCCCCCCCCCC(=O)O)C(=O)O)C(=O)N[C@@H](CC(N)=O)C(=O)N[C@@H]([C@@H](C)O)C(=O)N[C@@H](C)C(=O)N[C@@H]([C@@H](C)O)C(=O)N1)[C@@H](C)O)C(=O)N1CCC[C@H]1C(=O)N[C@@H](CO)C(=O)N[C@@H](CO)C(=O)N[C@H](C(=O)N1CCC[C@H]1C(=O)N[C@H](C(=O)NCC(=O)N[C@@H](CO)C(=O)N[C@@H](CC(N)=O)C(=O)N[C@H](C(=O)N[C@@H](Cc1ccc(O)cc1)C(N)=O)[C@@H](C)O)C(C)C)[C@@H](C)O, also called compound 31)", "values": [{"measurement": "hCTR funct. EC50", "setting": "[1]", "value": 0.717, "unit": "nM"}, {"measurement": "Ratio hCT/hAmylin funct.", "setting": "[2]", "value": 6.4}, {"measurement": "hAmylin-R funct. EC50", "setting": "[2]", "value": 0.112, "unit": "nM"}, {"measurement": "IC50", "setting": "[3]", "value": 0.204, "unit": "nM"}]}
{"binder": "{C20 diacid-γGlu}-KCNTATCATQRLAEFLRHSSPNFGAIPSSTNVGPNTY-NH2 (disulfide 2-7; SMILES CC[C@H](C)[C@H](NC(=O)[C@H](C)NC(=O)CNC(=O)[C@H](Cc1ccccc1)NC(=O)[C@H](CC(N)=O)NC(=O)[C@@H]1CCCN1C(=O)[C@H](CO)NC(=O)[C@H](CO)NC(=O)[C@H](Cc1c[nH]cn1)NC(=O)[C@H](CCCNC(=N)N)NC(=O)[C@H](CC(C)C)NC(=O)[C@H](Cc1ccccc1)NC(=O)[C@H](CCC(=O)O)NC(=O)[C@H](C)NC(=O)[C@H](CC(C)C)NC(=O)[C@H](CCCNC(=N)N)NC(=O)[C@H](CCC(N)=O)NC(=O)[C@@H](NC(=O)[C@H](C)NC(=O)[C@@H]1CSSC[C@H](NC(=O)[C@H](CCCCN)NC(=O)CC[C@H](NC(=O)CCCCCCCCCCCCCCCCCCC(=O)O)C(=O)O)C(=O)N[C@@H](CC(N)=O)C(=O)N[C@@H]([C@@H](C)O)C(=O)N[C@@H](C)C(=O)N[C@@H]([C@@H](C)O)C(=O)N1)[C@@H](C)O)C(=O)N1CCC[C@H]1C(=O)N[C@@H](CO)C(=O)N[C@@H](CO)C(=O)N[C@H](C(=O)N[C@@H](CC(N)=O)C(=O)N[C@H](C(=O)NCC(=O)N1CCC[C@H]1C(=O)N[C@@H](CC(N)=O)C(=O)N[C@H](C(=O)N[C@@H](Cc1ccc(O)cc1)C(N)=O)[C@@H](C)O)C(C)C)[C@@H](C)O, also called compound 32)", "values": [{"measurement": "hCTR funct. EC50", "setting": "[1]", "value": 0.327, "unit": "nM"}, {"measurement": "Ratio hCT/hAmylin funct.", "setting": "[2]", "value": 6.6}, {"measurement": "hAmylin-R funct. EC50", "setting": "[2]", "value": 0.05, "unit": "nM"}, {"measurement": "IC50", "setting": "[3]", "value": 0.1, "unit": "nM"}]}
{"binder": "{C20 diacid-γGlu-γGlu}-KCNTATCATQRLAEFLRHSSPNFGAIPSSTNVGSNTP-NH2 (disulfide 2-7; SMILES CC[C@H](C)[C@H](NC(=O)[C@H](C)NC(=O)CNC(=O)[C@H](Cc1ccccc1)NC(=O)[C@H](CC(N)=O)NC(=O)[C@@H]1CCCN1C(=O)[C@H](CO)NC(=O)[C@H](CO)NC(=O)[C@H](Cc1c[nH]cn1)NC(=O)[C@H](CCCNC(=N)N)NC(=O)[C@H](CC(C)C)NC(=O)[C@H](Cc1ccccc1)NC(=O)[C@H](CCC(=O)O)NC(=O)[C@H](C)NC(=O)[C@H](CC(C)C)NC(=O)[C@H](CCCNC(=N)N)NC(=O)[C@H](CCC(N)=O)NC(=O)[C@@H](NC(=O)[C@H](C)NC(=O)[C@@H]1CSSC[C@H](NC(=O)[C@H](CCCCN)NC(=O)CC[C@H](NC(=O)CC[C@H](NC(=O)CCCCCCCCCCCCCCCCCCC(=O)O)C(=O)O)C(=O)O)C(=O)N[C@@H](CC(N)=O)C(=O)N[C@@H]([C@@H](C)O)C(=O)N[C@@H](C)C(=O)N[C@@H]([C@@H](C)O)C(=O)N1)[C@@H](C)O)C(=O)N1CCC[C@H]1C(=O)N[C@@H](CO)C(=O)N[C@@H](CO)C(=O)N[C@H](C(=O)N[C@@H](CC(N)=O)C(=O)N[C@H](C(=O)NCC(=O)N[C@@H](CO)C(=O)N[C@@H](CC(N)=O)C(=O)N[C@H](C(=O)N1CCC[C@H]1C(N)=O)[C@@H](C)O)C(C)C)[C@@H](C)O, also called compound 14)", "values": [{"measurement": "hCTR funct. EC50", "setting": "[1]", "value": 0.238, "unit": "nM"}, {"measurement": "Ratio hCT/hAmylin funct.", "setting": "[2]", "value": 1.6}, {"measurement": "hAmylin-R funct. EC50", "setting": "[2]", "value": 0.146, "unit": "nM"}, {"measurement": "IC50", "setting": "[3]", "value": 0.196, "unit": "nM"}]}
{"binder": "{C20 diacid-γGlu}-KCNTATCATQRLAEFLRHSSPNFGAIPSSTNVGSNTP-NH2 (disulfide 2-7; SMILES CC[C@H](C)[C@H](NC(=O)[C@H](C)NC(=O)CNC(=O)[C@H](Cc1ccccc1)NC(=O)[C@H](CC(N)=O)NC(=O)[C@@H]1CCCN1C(=O)[C@H](CO)NC(=O)[C@H](CO)NC(=O)[C@H](Cc1c[nH]cn1)NC(=O)[C@H](CCCNC(=N)N)NC(=O)[C@H](CC(C)C)NC(=O)[C@H](Cc1ccccc1)NC(=O)[C@H](CCC(=O)O)NC(=O)[C@H](C)NC(=O)[C@H](CC(C)C)NC(=O)[C@H](CCCNC(=N)N)NC(=O)[C@H](CCC(N)=O)NC(=O)[C@@H](NC(=O)[C@H](C)NC(=O)[C@@H]1CSSC[C@H](NC(=O)[C@H](CCCCN)NC(=O)CC[C@H](NC(=O)CCCCCCCCCCCCCCCCCCC(=O)O)C(=O)O)C(=O)N[C@@H](CC(N)=O)C(=O)N[C@@H]([C@@H](C)O)C(=O)N[C@@H](C)C(=O)N[C@@H]([C@@H](C)O)C(=O)N1)[C@@H](C)O)C(=O)N1CCC[C@H]1C(=O)N[C@@H](CO)C(=O)N[C@@H](CO)C(=O)N[C@H](C(=O)N[C@@H](CC(N)=O)C(=O)N[C@H](C(=O)NCC(=O)N[C@@H](CO)C(=O)N[C@@H](CC(N)=O)C(=O)N[C@H](C(=O)N1CCC[C@H]1C(N)=O)[C@@H](C)O)C(C)C)[C@@H](C)O, also called compound 8)", "values": [{"measurement": "hCTR funct. EC50", "setting": "[1]", "value": 0.087, "unit": "nM"}, {"measurement": "Ratio hCT/hAmylin funct.", "setting": "[2]", "value": 1.1}, {"measurement": "hAmylin-R funct. EC50", "setting": "[2]", "value": 0.082, "unit": "nM"}, {"measurement": "IC50", "setting": "[3]", "value": 0.072, "unit": "nM"}]}
{"binder": "{C20 diacid-γGlu}-KCNTATCATQRLAEFLRHSSPNFGAILPSTNVGSETY-NH2 (disulfide 2-7, also called compound 33)", "values": [{"measurement": "hCTR funct. EC50", "setting": "[1]", "value": 0.528, "unit": "nM"}, {"measurement": "Ratio hCT/hAmylin funct.", "setting": "[2]", "value": 2.2}, {"measurement": "hAmylin-R funct. EC50", "setting": "[2]", "value": 0.243, "unit": "nM"}, {"measurement": "IC50", "setting": "[3]", "value": 0.915, "unit": "nM"}]}
